Data from patent US11697680B2, “Anti-GP73 antibodies and immunoconjugates” (CUREAB GMBH, priority 2016, dated 2023).

Columns and labels:
GP73 peptide: […] = molecular target: T1, GP73 peptide: […] (Homo sapiens, UniProt Q8NBJ4); assay: Biacore surface plasmon resonance, data fit for 1:1 binding; conditions: Biacore 1:1 binding fit, GP73 peptide SSRSVDLQTRIMELEGRVRR
T1 construct: GP73 peptide: […]
Protocol: In one embodiment, Kd is measured using surface plasmon resonance assays using a BIACORE®-2000 or a BIACORE®-3000 (BIAcore, Inc., Piscataway, N.J.) at 25° C. with immobilized antigen CM5 chips at […] response units (RU). Briefly, carboxymethylated dextran biosensor chips (CM5, BIACORE, Inc.) are activated with N-ethyl-N′-(3-dimethylaminopropyl) carbodiimide hydrochloride (EDC) and N-hydroxysuccinimide (NHS) according to the supplier's instructions. Antigen is diluted with 10 mM sodium acetate, pH 4.8, to 5 μg/ml (−0.2 μM) before injection at a flow rate of 5 μl/minute to achieve approximately 10 response units (RU) of coupled protein. Following the injection of antigen, 1 M ethanolamine is injected to block unreacted groups. For kinetics measurements, two-fold serial dilutions of antibody (0.58 nM to 200 nM) are injected in PBS with 0.05% polysorbate 20 (TWEEN-20™) surfactant (PEST) at 25° C. at a flow rate of approximately 25 μl/min. Association rates (kon) and dissociation rates (koff) are calculated using a simple one-to-one Langmuir binding model (BIACORE® T100 Evaluation Software) by simultaneously fitting the association and dissociation sensorgrams. The equilibrium dissociation constant (Kd) is calculated as the ratio koff/kon. See, e.g., Chen et al., J. Mol. Biol. 293:865-881 (1999). If the on-rate exceeds […] s^−1 by the surface plasmon resonance assay above, then the on-rate can be determined by using a fluorescent quenching technique that measures the increase or decrease in fluorescence emission intensity (excitation=295 nm; emission=340 nm, 16 nm band-pass) at 25° C. of a 20 nM anti-antigen antibody in PBS, pH 7.2, in the presence of increasing concentrations of antigen as measured in a spectrometer, such as a stop-flow equipped spectrophometer (Aviv Instruments) or a 8000-series SLM-AMINCO™ spectrophotometer (ThermoSpectronic) with a stirred cuvette.

[1] = test system: HuH7 (human hepatocellular carcinoma); assay: Cell viability / proliferation with PrestoBlue reagent; format: cell-based; conditions: 0.125 mg/ml to 2 mg/ml, after 72 hrs
Protocol: FIG. 13A Proliferation of HuH7 cells (human hepatocellular carcinoma) after treatment with different antibodies. HuH7 cells were treated with G2-2, G2-2 plus Cetuximab, mG2-2, mG2-2 plus Cetuximab, Cetuximab or control antibody each in increasing concentrations from 0.125 mg/ml to 2 mg/ml. Proliferating cells were measured after 72 hrs. […] This effect was independent of the Fc part i.e. human IgG1 in G2-2 or murin IgG2a in mG2-2 as described in Example 8.
FIG. 13B Proliferation of HuH7 cells (human hepatocellular carcinoma), 4T1 cells (murin breast carcinoma) and CaCo2 cells (human colorectal carcinoma) after treatment with different antibodies. The three cell lines were treated with G2-1, G2-1 plus Cetuximab, Cetuximab, Bevacizumab or Bevacizumab plus Cetuximab 2 mg/ml total. Proliferating cells were measured after 72 hrs.
Cells from the cell lines HuH7 (human hepatocellular carcinoma), 4T1 (murin breast carcinoma) and CaCo2 (human colorectal carcinoma) were cultured under standard conditions in Dulbecco's modified Eagle Medium (DMEM) supplemented with 10% fetal calf serum (FCS) at 37° C. with 5% CO2. […] Fluorescence was read at 615 nm to quantify cell viability. […]
To test the effect of G2-1 on different cell lines, HuH7, 4T1 and CaCo2 cells were transferred to 96 well plates. […] Cell viability was quantified after 72 hours using PrestoBlue reagent and measuring the fluorescence at 615 nm.

peptide AA 36-55 of GP73 = peptide AA 36-55 of GP73 (Homo sapiens, UniProt Q8NBJ4); assay: Competition peptide ELISA with HRP-labeled antibodies; format: binding; conditions: unlabeled competing antibody at high concentration; binding antibody G2-1-HRP
Protocol: A peptide ELISA was performed using horse radish peroxidase labeled G2-1 (G2-1-HRP) or G2-2 (G2-2-HRP) as binding antibodies and G2-1 or G2-2 as competing antibodies. […] Binding to peptide AA 36-55 of GP73 served as positive control (filled circle), negative control was binding to an unrelated peptide (filled diamond) as described in Example 5.
ELISA was carried out in 96 well plates coated overnight with biotinylated peptide and blocked with 2% gelatine. Horse radish peroxidase labeled antibodies G2-1 (G2-1-HRP) or G2-2 (G2-2-HRP) were applied and incubated for 1.5 hours. For competition testing non labeled G2-1 or G2-2 was added at high concentration. For pH dependent binding the antibodies were applied in phosphate buffer pH 4.4, 5.4, 6.4 or 7.4. After extensive washing a chromogenic substrate (TMB Amersham) was added to detect peroxidase. The reaction was stopped and absorbance was read at 450 nm.

B1: G2-2: scFv clone with human IgG1 heavy and human Igk light constant regions; VH/VL SEQ ID NO: 2 and 3; binds rGP73 AA 36-55 (antibody, V domains shown)
VH: EVQLLQSGGGVVQPGRSLRLSCAASGFTFSSYGMSWVRQAPGKGLEWVAVISYDGSNKYYADSVKGRFTISRDNSKNTLYLQMNSLRAEDTAVYYCAREGSAGMDVWGQGTTVTVSS
VL: DIQMTQPSSLSASPGASASLTCTLRSDISVGFHRIYWYQQKPGSPPQYLLRYKSDSDKQQGSGVPSRFSGSKDASANAGILLISGLQSDDEADYYCVIWHTSGVVFGGGTKVEIK
modifications: human IgG1 and Igk constant regions not cited; G2-2 heavy chain variable region (VH); G2-2 light chain variable region (VL)
For B1, the “koff, measurement 1 + 2 mean” value (GP73 peptide: […]) was 0.001108 s⁻¹, the “kon, measurement 1 + 2 mean” value (GP73 peptide: […]) was 260200 M⁻¹ s⁻¹ and the Kd (GP73 peptide: […]; read-out: Kd, measurement 1 + 2 mean) was 4.29 nM. For the same molecule, the “cell proliferation / cell viability” value [1] was “reduced depending on antibody concentration” and the “competition with G2-1-HRP for peptide binding” value (peptide AA 36-55 of GP73) was “Competitive inhibition”.
